Measured values from patent US20200262927A1 (OXFORD BIOTHERAPEUTICS, published 2020).

How the values were obtained:
[1] = biological target: human CRTAM on in vitro activated human T cells (human) (UniProt O95727); assay: flow cytometry on in vitro activated human T cells, MFI against antibody concentration
[2] = biological target: T1, human CRTAM on in vitro activated human T cells (human, UniProt O95727 18-393); assay: flow cytometry on in vitro activated human T cells, goat anti-rat IgG-RPE detection, MFI against antibody concentration
T1 sequence: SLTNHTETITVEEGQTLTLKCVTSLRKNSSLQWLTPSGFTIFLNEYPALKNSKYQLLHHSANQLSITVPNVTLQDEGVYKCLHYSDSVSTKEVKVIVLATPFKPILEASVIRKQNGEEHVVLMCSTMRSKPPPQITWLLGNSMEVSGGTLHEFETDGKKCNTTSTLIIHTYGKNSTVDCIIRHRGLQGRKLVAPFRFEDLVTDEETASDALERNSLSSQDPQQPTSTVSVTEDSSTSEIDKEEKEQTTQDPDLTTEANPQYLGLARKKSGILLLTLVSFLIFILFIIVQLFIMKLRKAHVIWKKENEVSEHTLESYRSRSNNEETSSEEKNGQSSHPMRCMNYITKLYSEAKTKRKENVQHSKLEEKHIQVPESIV
Procedure: Following this the cells were cultured with anti-CD3/anti-CD28 activation beads (Cat #11132D, Thermo Fisher, Waltham, Mass.) for 24 hours before FACS analysis (data not shown).
Fluorescence-activated cell sorting (FACS) analysis was performed in 96-well plate format according to standard protocols. Activated T cells were prepared as above. All subsequent steps of the staining protocol were carried out on ice with ice-cold reagents except for the centrifugation steps which was done at RT. Three-fold serial dilutions of the antibodies, were prepared in FACS buffer to give a 12-point titration curve with final concentrations ranging from 133 nM to 1 pM. The corresponding hybridoma supernatants, isotype controls, and positive control antibodies were diluted in ice cold FACS buffer to be tested at a single point with a final concentration of 30 nM. The antibody dilutions were each dispensed (100 μL/well) into one well for each cell line. […] The final cell pellets were re-suspended in […]+50 μl of 4% paraformaldehyde and fixed until ready to be acquired in a Flow cytometer. […] Geometric mean fluorescence intensity (GMFI or Geo Mean) of each sample was determined using a Guava Easycyte Plus high-throughput flow cytometer (96 well plates) and raw data were analyzed using the Guava Cytosoft Pro Software Module, version 2.2.2 (Millipore, Billerica Mass.). […]

Which EC50 (read off the curve) [1] does the source give for “commercially available anti-CRTAM antibody CR24.1 (BioLegend)” here?
Its EC50 (read off the curve) is 2 µg/mL.

B1: 5A11 parental rat monoclonal anti-CRTAM antibody (antibody, V domains shown)
VH: AVQLVESGGGLVQPKESLKISCAASGFTFSDAAMYWVRQAPGKGLEWVARIRTKTNNYAAHYVESVKGRFTVSRDDSKSMVYLQMDNLKTDDTAMYYCTSVPQGTQDYWGQGVMVTVSS
VL: SYELIQPPSASVTLGNTVSLTCVGDELSKRYVQWSQQKPDKTIVSVIYKDSERPSGISDRFSGSSSGTTATLTIHGTLAEDEADYYCLSTYSDDNLPVFGGGTKLTVL
notes: Rat monoclonal from a hybridoma, detected with goat anti-rat IgG; also called antibody 5A11; BUH-5A11-F2
With B1 as the molecule, how does the “EC50 (read off the curve)” value [2] read?
Its value is about 0.02 µg/mL.
